Laboratory results from publication PMC11324738.

Assays:
[1] = biological target: endogenous LC3 (human cells), Q9GZQ8; experiment: Proximity Ligation Assay; conditions: chain shown with the change; HeLa cells transfected with GPR50-FLAG constructs; antibodies against LC3 and FLAG; n = 178–208 cells per group from 3 independent experiments; parent: est. 25; read off a plot
GFP-LC3, Q9GZQ8 = experiment: Co-immunoprecipitation; conditions: chain shown with the change; HEK293T cells co-transfected with GFP-LC3 and GPR50-FLAG constructs; IP anti-FLAG; n = 4 independent experiments; parent: est. 1.0; read off a plot
[2] = biological target: recombinant LC3 protein, Q9GZQ8; experiment: ELISA; conditions: chain shown with the change, recombinant LC3 coated on the plate, biotin-labeled synthetic peptide, read off a plot

Row | response (DUO (+) spots/cell) [1] | ratio to parent (GFP-LC3, Q9GZQ8) | response ([2]; peptide 1 µM, parent: est. 0.47) | response ([2]; peptide 2.5 µM, parent: est. 1.2) | response ([2]; peptide 5 µM, parent: est. 3.2) | response ([2]; peptide 10 µM, parent: est. 3.7) | response ([2]; peptide 20 µM, parent: est. 3.7) | response ([2]; peptide 40 µM, parent: est. 3.7) | Binder
1 | 5.5 | 0.65 |  |  |  |  |  |  | GPR50-FLAG WT, Q13585 Y305A; W306A; T307A; I308A (protein) MGPTLAVPTPYGCIGCKLPQPEYPPALIIFMFCAMVITIVVDLIGNSMVILAVTKNKKLRNSGNIFVVSLSVADMLVAIYPYPLMLHAMSIGGWDLSQLQCQMVGFITGLSVVGSIFNIVAIAINRYCYICHSLQYERIFSVRNTCIYLVITWIMTVLAVLPNMYIGTIEYDPRTYTCIFNYLNNPVFTVTIVCIHFVLPLLIVGFCYVRIWTKVLAARDPAGQNPDNQLAEVRNFLTMFVIFLLFAVCWCPINVLTVLVAVSPKEMAGKIPNWLYLAAYFIAYFNSCLNAVIYGLLNENFRREAAAAFHAMRHPIIFFSGLISDIREMQEARTLARARAHARDQAREQDRAHACPAVEETPMNVRNVPLPGDAAAGHPDRASGHPKPHSRSSSAYRKSASTHHKSVFSHSKAASGHLKPVSGHSKPASGHPKSATVYPKPASVHFKADSVHFKGDSVHFKPDSVHFKPASSNPKPITGHHVSAGSHSKSAFSAATSHPKPTTGHIKPATSHAEPTTADYPKPATTSHPKPTAADNPELSASHCPEIPAIAHPVSDDSDLPESASSPAAGPTKPAASQLESDTIADLPDPTVVTTSTNDYHDVVVIDVEDDPDEMAV
2 |  |  | 0.38 OD (562 nm) | 0.35 OD (562 nm) | 0.38 OD (562 nm) | 0.4 OD (562 nm) | 0.4 OD (562 nm) | 0.5 OD (562 nm) | NAVIYGLLNENFRREAAAAFHAM [biotin-labeled synthetic GPR50 LIR peptide, a.a. 290-312 (WT), Q13585 Y305A; W306A; T307A; I308A]
